Assay results from the supplement of paper PMC9170038.

Tested on: MS2 coat protein
Test: apparent KD of MS2 coat protein; designed switch direction (-1 OFF switch, 1 ON switch): -1; higher = weaker reporter binding
In short: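 Three titration conditions were used: no input, 200 uM small-molecule ligand, and an oligonucleotide input. In each, SNAP-549-labelled MS2 coat protein was raised from 0.7 or 1.5 nM, doubling, to 3 µM over designed RNA switches transcribed on Illumina chips by stalled E. coli RNA polymerase. Curve fits of normalised cluster fluorescence gave values whose per-design median over clusters is the apparent KD.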

[1] = Eterna round: R95, input ligand: FMN 200 uM
[2] = Eterna round: R95, input ligand: microRNA oligo, concentration not stated
[3] = Eterna round: R95, input ligand: none
[4] = input ligand: microRNA oligo, concentration not stated

Row | Sequence | apparent KD of MS2 coat protein (input ligand: FMN 200 uM) | apparent KD of MS2 coat protein (input ligand: none) | apparent KD of MS2 coat protein [1] | apparent KD of MS2 coat protein [2] | apparent KD of MS2 coat protein [3] | apparent KD of MS2 coat protein [4]
1 | AUAAGGGCAGGAUAUGCAGAAAAGAUUGGCGUGGUCCUGACACAUGAGGAUCACCCAUGUAGAAGGGCCUAGCC [Maquzaar] (Eterna round: R97, puzzle: Exclusion 2) | 13.5 nM | 14.8 nM | – | – | – | –
2 | GACAGGGCAGGAUAUCGAAUUCCUCACAUGAGGAUCACCCAUGUUCAGUCGAAAGACUGACGAGAAGGGCCGUGUC [Omei Ex5 E1] (Eterna round: R97, puzzle: Exclusion 5) | 1020 nM | 2290 nM | – | – | – | –
3 | GAAAAGAUAGGAUAUACAAGAAGAAAAGAAAAGAAAAGAAAACAUGAGGAUCACCCAUGUAGAAGGAUCAAAAG [Default title] (puzzle: Exclusion 2) | – | – | 15 nM | 13.5 nM | 15.5 nM | –
4 | AGUAACUAUCACGAAAGUGAUAGUUACAAACAAGUGGAAACAUGAGGAUCACCCAUGUCCUCAUUUGCUCGUCUUAU [Sensor 3 - 6] (puzzle: Sensor v3, turn-off variant 2) | – | – | 574 nM | 556 nM | 503 nM | –
5 | CCAAACUGAGGAUAUACAUGAGGAUCACCCAUGUGCCCGCGGUCAUAUGUAGCCUAGUGUAGAAGGCAGAAAAC [Rearle] (puzzle: Exclusion 3) | – | – | – | 33 nM | – | –
6 | AUCCAGCGAGGAUAUACUUUGUUUUUUUCGUUUUGUCUCGAACAUGAGGAUCACCCAUGUAGAAGGUGCUUCAC [JR_Ex2_Sub005] (Eterna round: R97, puzzle: Exclusion 2) | 60.8 nM | 69.7 nM | – | – | – | –
7 | ACAUGAGGAUCACCCAUGUCCGGCUGGUCCGUCUCGGCUGUCGAGGAUAUGGCUCGGUGUCCGCGCUAGAAGGCGGGAGCCGGA [Aenatbe mod 76] (Eterna round: R96, puzzle: Exclusion NG 3) | 31.6 nM | 45.4 nM | – | – | – | 27.2 nM
8 | GGCGCCUCAGGAUAUCAGUCUGGAUCAGAAAAGAUCCUGACUGAGAAGGGACAUGAGGAUCACCCAUGUUCGCC [Mat - Exclusion 4 - Eli Mod - D52] (Eterna round: R97, puzzle: Exclusion 4) | 17.3 nM | 18.4 nM | – | – | – | –
9 | CAAAAGCUAGGAUAUACAUGAGGAUCACCCAUGUAUAGGUGGGCAGUUCUUAUCAAACGUAGAAGGAGCAUAAA [Uslaisan] (puzzle: Exclusion 3) | – | – | 39.2 nM | 17.5 nM | 16.6 nM | –
10 | UCACGGGAUUGAGGAUAUAUAUUAAUUUUUACAAUAGAAGGCAAAUUGUUAGAUUAUUCACUAUACAUGAGGAUCACCCAUGUU [JR_ExcBG1_Sub078] (Eterna round: R96, puzzle: Exclusion NG 1) | – | – | – | – | – | 17.6 nM
11 | AUAAUGUAAGGAUAUCAGUCGACUAGCUGCGGCUAGUCGACUGAGAAGGUACAUGAGGAUCACCCAUGUGAAUA [E4/16-A3] (Eterna round: R97, puzzle: Exclusion 4) | 224 nM | 41.7 nM | – | – | – | –
12 | UACCUGUAGGUAGGAUAUCAUUGCGAUUAGCUAUGAGAAGGACCACAUGAGGAUCACCCAUGUCUACUCAGGAACCGAAAGGUC [Fiskers ExNg1 - 1] (Eterna round: R96, puzzle: Exclusion NG 1) | 13 nM | 17.3 nM | – | – | – | 10.4 nM
13 | AUCAGCUCGUCAGGAUAUAUAUACAUGAGGAUCACCCAUGUAAGAUCAGGCUUCGGCCAAUGUAUAUAGAAGGGACGAGCUGAU [ENG2/11-B3] (Eterna round: R96, puzzle: Exclusion NG 2) | 1550 nM | 771 nM | – | – | – | 371 nM
14 | UAGUACAGAGGAUAUACAUGAGGAUCACCCAUGUGUUUCAGCUAGGAGACUAGCGAAAGUAGAAGGCUGUACUU [salish99_ex3_r4_009] (Eterna round: R97, puzzle: Exclusion 3) | 22.4 nM | 8.4 nM | – | – | – | –
15 | GUAAACGAAGAGGAUAUAUGAUAUCAAAGCUUCAUAGAAGGCUUCACAUGAGGAUCACCCAUGUGAUCUUCAAG [Mat - Exclusion 6 - JL Mod - D25] (Eterna round: R97, puzzle: Exclusion 6) | 354 nM | 71.5 nM | – | – | – | –
16 | UGUUGUUGAUAGGAUAUACAGGUAGGAGUAGGAGUAGAAGGAUCUACAUGAGGAUCACCCAUGUAGGAGUGAGA [JR_E6_Sub002] (puzzle: Exclusion 6) | – | – | – | 14.9 nM | – | –
17 | UAUUAGAGAGGAUAUAUGAUGUGAAACAUGAGGAUCACCCAUGUAAUAUUAUGGAUGUAAAUAGAAGGCUCAUUUA [Mat - Exclusion 5 - JL mod - D15] (puzzle: Exclusion 5) | – | – | 47.4 nM | 77.5 nM | 80.2 nM | –

Row | Sequence | apparent KD of MS2 coat protein (input ligand: FMN 200 uM) | apparent KD of MS2 coat protein (input ligand: none) | apparent KD of MS2 coat protein [1] | apparent KD of MS2 coat protein [2] | apparent KD of MS2 coat protein [3] | apparent KD of MS2 coat protein [4]
18 | CAUCUGUGAGGAUAUGGUGAGUAGUGCCUGAGCGCUGCUCACCAGAAGGCACAUGAGGAUCACCCAUGUAUGAC [JL-ex4-2.01 denovo] (Eterna round: R96, puzzle: Exclusion 4) | 319 nM | 70 nM | – | – | – | 46.3 nM
19 | CCUCGUAGGGAGGAUAUCCUUUAAAUUUAAGGAGGAGAAGGCUCAACAUGAGGAUCACCCAUGUAAAAUUUAAA [-17, -14.8 kcal, A 36%] (Eterna round: R97, puzzle: Exclusion 6) | 109 nM | 78.7 nM | – | – | – | –
20 | GUUGUCCUUGUAAGGAUAUCCGGAUAGAGCAUAUCGGAGAAGGUACAUGAGGAUCACCCAUGUCUCACCGUGCU [Eternabot (L1) Solution 95] (Eterna round: R97, puzzle: Brourd's mod of Exclusion 4) | 14.4 nM | 14.3 nM | – | – | – | –
21 | AAUAACAAGCCGAUCCUUCACAUGAGGAUCACCCAUGUGCUCGUCUUGUAAAGUACUAUCACGAAAGUGAUAGUACA (Eterna round: R97, puzzle: Sensor, turn-off variant 1) | 22.6 nM | 19.9 nM | – | – | – | –
22 | AAGGGUGCUUUCAGAACGACAUGAGGAUCACCCAUGUAGACUGAGGAUAUCUACUCCUAAGGACGGGAGAAGGCAGUGUAAUGC [Ex NG3 #65] (Eterna round: R96, puzzle: Exclusion NG 3) | 19.5 nM | 21.7 nM | – | – | – | 14.2 nM
23 | CUGAGCAGACGGAGAUCCAACAUGAGGAUCACCCAUGUCUCAUAAGCUUUUUGCUUGUCUUAUCCUCCUCUGUUCUC [Mariedxeor] (puzzle: Sensor v3, turn-off variant 1) | – | – | 17.7 nM | 315 nM | 14.4 nM | –
24 | AAUUAAGCAAGCAGAUCCCACAUGAGGAUCACCCAUGUGCUCGUCUUAUAAGGUACUGUGACGAGAGUCACGGUACC [Mat - Sensor, turn-off var - Eli Mod - D70] (Eterna round: R97, puzzle: Sensor, turn-off variant 1) | 128 nM | 97.1 nM | – | – | – | –
25 | GUCAUACAUGAGGAUCACCCAUGUAAGGAUAUGCUAGCGGUCGGCUGACUGACUGCUAGCAGAAGGUACAUGAU (puzzle: Exclusion 1) | – | – | – | 61.5 nM | – | –
26 | GCAGCUAAUGCAGGAUAUCAGCACGUUUAGUGCUGAGAAGGGCACAUGAGGAUCACCCAUGUGAUCAAUUAAUAUUAAUGCUGC [ENG1/11-B2] (Eterna round: R96, puzzle: Exclusion NG 1) | 152 nM | 31 nM | – | – | – | 23.1 nM
27 | GUUGGAUGAGGAUAUCGAGGUUAGUACAUGAGGAUCACCCAUGUUAUCCAGGUGUCGGUUCGAGAAGGCAUUGGAC [LRO-Ex5-14] (puzzle: Exclusion 5) | – | – | – | 32.9 nM | – | –
28 | GAUUAUGCGAGCUUUAGGGACAUGAGGAUCACCCAUGUUCGUCUUAUUGGUCUAAGUGCACUGACAUACCUAAAUCU [JMF 84] (puzzle: Sensor v3, turn-off variant 1) | – | – | 20.2 nM | 31.5 nM | 19.6 nM | –
29 | CUAAUAUAUCAGGAUAUGAUUUUAUGUGUUGGAUCAGAAGGGAUAACAUGAGGAUCACCCAUGUUGUGGAGUGA [JR_Ex6_Sub037] (Eterna round: R97, puzzle: Exclusion 6) | 271 nM | 112 nM | – | – | – | –
30 | AGAAGUAGAAACCGAUCCUACAUGAGGAUCACCCAUGUAGCAAGACGUGCACGCGAAGCUCGUCAGACUACCAGAAA [salish99_TOv1_r3_005] (puzzle: Sensor v3, turn-off variant 1) | – | – | 159 nM | 223 nM | 337 nM | –
31 | GGCAUCGGAGGAUAUACUUAUGGUGAUACCCGAAGCUUUCUACUUGAGGAUCACCCAAGUAGAAGGCCGAUGCC [jl-ex2.4.81 ViennaUCT mod] (Eterna round: R97, puzzle: Exclusion 2) | 11.7 nM | 12.6 nM | – | – | – | –
32 | CUGAGCUGAGGAUAUACAUGAGGAUCACCCAUGUAAAGCAGCUUGCGUACAGGCAGAUGUAGAAGGCAGUUCGG [Mod of JL 16 - Jieux - Exclusion 3] (Eterna round: R97, puzzle: Exclusion 3) | 37.4 nM | 18.1 nM | – | – | – | –
33 | GUAGAGUCAGGAUAUACAAAACCAUCGAAAGAUGGAUCCAUACAUGAGGAUCACCCAUGUAGAAGGGACUCUAC [Eli x2 4.17] (Eterna round: R97, puzzle: Exclusion 2) | 21 nM | 17.1 nM | – | – | – | –
34 | GUGUACAGAGGAUAUAUAUGGGCAUGGAAACAUGCAACUUCACAUGAGGAUCACCCAUGUAGAAGGCUGUACAC [Ex2: 712] (Eterna round: R96, puzzle: Exclusion 2) | 332 nM | 28.9 nM | – | – | – | 23 nM
